# B1: RBITC-OVA: OVA labelled with Rhodamine b isothiocyanate, soluble (protein, UniProt P01012 2-386, looked up)
# Ovalbumin: GSIGAASMEFCFDVFKELKVHHANENIFYCPIAIMSALAMVYLGAKDSTRTQINKVVRFDKLPGFGDSIEAQCGTSVNVHSSLRDILNQITKPNDVYSFSLASRLYAEERYPILPEYLQCVKELYRGGLEPINFQTAADQARELINSWVESQTNGIIRNVLQPSSVDSQTAMVLVNAIVFKGLWEKAFKDEDTQAMPFRVTEQESKPVQMMYQIGLFRVASMASEKMKILELPFASGTMSMLVLLPDEVSGLEQLESIINFEKLTEWTSSNVMEERKIKVYLPRMKMEEKYNLTSVLMAMGITDVFSSSANLSGISSAESLKISQAVHAAHAEINEAGREVVGSAEAGVDAASVSEEFRADHPFLFCIKHIATNAVLFFGRCVSP
# modifications: rhodamine B isothiocyanate label
# notes: OVA labelled with Rhodamine b isothiocyanate, soluble
# Tested on: bone marrow-derived dendritic cells (BMDCs)
# Experiment: Antigen uptake by BMDCs (confocal microscopy; OVA-Rhod)
# Type: cell-based
# Conditions: 1 h, 37 °C, OVA-Rhod 2.5 µg mL^-1 (soluble) or Comp./OVA = 10:1 w/w
# Protocol: Figure 5 Vaccine promoting antigen uptake by BMDCs. […] Magnification: 63 ×. (B) The percentage of OVA-Rhod-positive cells is shown. (C) Total fluorescence intensity of OVA-Rhod was measured; total fluorescence intensity (FI) = % of positive cells × mean fluorescence intensity. The bars shown represent the mean ± SE, and differences among groups were determined using one-way ANOVA. The asterisks indicate the significance of differences between the Vac-1 group and the indicated group. *: p < 0.05, **: p < 0.01.
molecule,measurement,value
B1,uptake of RBITC-OVA by DCs,poor uptake
